Results as given in the supplement of paper PMC7877785.
± gives the uncertainty stated by the source.

Experiment: self-splicing fitness, log relative to wild type (ln ratio); higher = more splicing; Tetrahymena group I intron in knt gene, E. coli kanamycin selection, DiMSum; sequences stand for … in CUCUCU…GGAGGGAAAAGUUAUCAGGCAUGCACCUGGUAGCUAGUCUUUAAACCAAUAGAUUGCAUCGGUUUAAAAGGCAAGACCGUCAAAUUGCGGGAAAGGGGUCAACAGCCGUUCAGUACCAAGUCUCAGGGGAAACUUUGAGAUGGCCUUGCAAAGGGUAUGGUAAUAAGCUGACGGACAUGGUCCUAACCACGCAGCCAAGUCCUAAGUCAACAGAUCUUCUGUUGAUAUGGAUGCAGUUCACAGACUAAAUGUCGGUCGGGGAAGAUGUAUUCUUCUCAUAAGAUAUAGUCGGACCUCUCCUUAAUGGGAGCUAGCGGAUGAAGUGAUGCAACACUGGAGCCGCUGGGAACUAAUUUGUAUGCGAAAGUAUAUUGAUUAGUUUUGGAGUACUCGUGGUCG
Summary of the method: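 Pooled colonies went to amplicon sequencing on an Illumina HiSeq 2500 after six replicate transformations. The plates were LB agar with 100 μg/mL carbenicillin, 50 μM IPTG and 0.2% rhamnose, with or without 25 μg/mL kanamycin, incubated overnight at 37°C or 30°C. The E. coli BL21(DE3) library had all eight P1ex-region intron nucleotides randomised, the intron placed in the knt kanamycin-resistance gene on pET-22b(+). DiMSum fitness is the error-weighted combination of replicate fold changes, kanamycin against none, normalised to wild type.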

Row | Sequence | self-splicing fitness (ln) (30 °C) | self-splicing fitness (ln) (37 °C)
1 | GCCAAGCAAUAUUACGGAUC | -0.959 ± 0.071 | -0.179 ± 0.098
2 | GCCAAGCAAUAUUACGGGUU | -2.48 ± 0.09 | -1.79 ± 0.1
3 | GCCAAGCAAUAUUACGGUGG | -3.54 ± 0.15 | -1.26 ± 0.14
4 | GCCAAGCAAUAUUACGUAAG | -1.37 ± 0.11 | -0.513 ± 0.13
5 | GCCAAGCAAUAUUACGUCUG | -3.62 ± 0.19 | -2.02 ± 0.16
6 | GCCAAGCAAUAUUACGUGCC | -3.36 ± 0.25 | -0.392 ± 0.17
7 | GCCAAGCAAUAUUACGUUCG | -3.08 ± 0.17 | -1.22 ± 0.13
8 | GCCAAGCAAUAUUACGUUGC | -2.91 ± 0.13 | -0.915 ± 0.15
9 | GCCAAGCAAUAUUACGUUUU | -2.86 ± 0.085 | -1.3 ± 0.093
10 | GCCCAGCAAUAUUACGAAGA | -1.46 ± 0.12 | -0.344 ± 0.14
11 | GCCCAGCAAUAUUACGACGG | -3.59 ± 0.25 | -3.13 ± 0.33
12 | GCCCAGCAAUAUUACGAUUA | -1.71 ± 0.1 | -0.936 ± 0.089
13 | GCCCAGCAAUAUUACGCACG | -3.39 ± 0.2 | 
14 | GCCCAGCAAUAUUACGCCGG | -3.34 ± 0.27 | -2.9 ± 0.47
15 | GCCCAGCAAUAUUACGCGAC | -2.9 ± 0.17 | -1.55 ± 0.14
16 | GCCCAGCAAUAUUACGGAAC | -1 ± 0.055 | -0.0936 ± 0.079
17 | GCCCAGCAAUAUUACGGACC | -3.47 ± 0.23 | -2.94 ± 0.31
18 | GCCCAGCAAUAUUACGGGAU | -1.74 ± 0.081 | -1.25 ± 0.1
19 | GCCCAGCAAUAUUACGGUAC | -1.27 ± 0.059 | -0.241 ± 0.073
20 | GCCCAGCAAUAUUACGUACA | -2.17 ± 0.1 | -0.789 ± 0.096
21 | GCCCAGCAAUAUUACGUCAU | -2.82 ± 0.1 | -1.29 ± 0.097
22 | GCCCAGCAAUAUUACGUCCU | -1.19 ± 0.11 | -0.722 ± 0.17
23 | GCCCAGCAAUAUUACGUCUU | -0.849 ± 0.061 | -0.668 ± 0.09
24 | GCCCAGCAAUAUUACGUGUA | -0.725 ± 0.046 | -0.0902 ± 0.058
25 | GCCCAGCAAUAUUACGUUCG | -3.71 ± 0.18 | -2.52 ± 0.22
26 | GCCGAGCAAUAUUACGACUA | -0.948 ± 0.16 | -2.21 ± 0.27
27 | GCCGAGCAAUAUUACGAUUA | -1.44 ± 0.13 | -1.39 ± 0.15

Row | Sequence | self-splicing fitness (ln) (30 °C) | self-splicing fitness (ln) (37 °C)
28 | GCCGAGCAAUAUUACGAUUC | -1.3 ± 0.13 | 0.294 ± 0.17
29 | GCCGAGCAAUAUUACGGACC | -2.47 ± 0.35 | -1.51 ± 0.39
30 | GCCGAGCAAUAUUACGGCAU | -4.31 ± 0.46 | -3.06 ± 0.35
31 | GCCGAGCAAUAUUACGGCUU |  | -2.08 ± 0.41
32 | GCCGAGCAAUAUUACGGUAG | -1.99 ± 0.15 | -3.24 ± 0.33
33 | GCCGAGCAAUAUUACGGUGC | -2.75 ± 0.24 | -2.48 ± 0.29
34 | GCCGAGCAAUAUUACGUACG | -2.46 ± 0.43 | -1.56 ± 0.26
35 | GCCGAGCAAUAUUACGUCAG | -3.33 ± 0.16 | -1.87 ± 0.19
36 | GCCGAGCAAUAUUACGUCGA | -2.36 ± 0.2 | -0.182 ± 0.14
37 | GCCGAGCAAUAUUACGUCGG | -4.39 ± 0.46 | 
38 | GCCGAGCAAUAUUACGUGGA | -1.68 ± 0.12 | -1.76 ± 0.15
39 | GCCUAGCAAUAUUACGAACA | -2.17 ± 0.22 | -1.03 ± 0.19
40 | GCCUAGCAAUAUUACGACCA | -1.08 ± 0.14 | -1.34 ± 0.13
41 | GCCUAGCAAUAUUACGACCC | -1.59 ± 0.21 | -0.272 ± 0.25
42 | GCCUAGCAAUAUUACGAGAC | -1.85 ± 0.16 | 0.662 ± 0.12
43 | GCCUAGCAAUAUUACGAUGU | -0.317 ± 0.081 | 0.35 ± 0.12
44 | GCCUAGCAAUAUUACGCCAU |  | -1.68 ± 0.45
45 | GCCUAGCAAUAUUACGCCGU | -1.01 ± 0.15 | -0.292 ± 0.13
46 | GCCUAGCAAUAUUACGCGCG | -1.66 ± 0.23 | -1.18 ± 0.22
47 | GCCUAGCAAUAUUACGCUUA | -1.01 ± 0.1 | -0.807 ± 0.11
48 | GCCUAGCAAUAUUACGGGAA | -0.327 ± 0.091 | 0.158 ± 0.11
49 | GCCUAGCAAUAUUACGGGGA | -0.34 ± 0.067 | -0.0121 ± 0.09
50 | GCCUAGCAAUAUUACGGGUA | -0.787 ± 0.072 | 0.611 ± 0.067
51 | GCCUAGCAAUAUUACGGUGA | -1.09 ± 0.067 | -0.113 ± 0.073
52 | GCCUAGCAAUAUUACGUCAC | -3.49 ± 0.24 | -2.04 ± 0.22
53 | GCCUAGCAAUAUUACGUCUA | -3.26 ± 0.38 | -1.73 ± 0.2
54 | GCCUAGCAAUAUUACGUGCC | -3.38 ± 0.23 | -2.08 ± 0.23

Row | Sequence | self-splicing fitness (ln) (30 °C) | self-splicing fitness (ln) (37 °C)
55 | GCCUAGCAAUAUUACGUUGG | -3.78 ± 0.32 | -2.7 ± 0.25
56 | GCGAAGCAAUAUUACGACAA | -2.21 ± 0.18 | -0.672 ± 0.12
57 | GCGAAGCAAUAUUACGACAG | -3.79 ± 0.16 | -1.97 ± 0.21
58 | GCGAAGCAAUAUUACGACCU | -0.269 ± 0.073 | -0.573 ± 0.086
59 | GCGAAGCAAUAUUACGACGA | 0.0165 ± 0.18 | 0.163 ± 0.2
60 | GCGAAGCAAUAUUACGACUG | -1.72 ± 0.14 | -0.66 ± 0.14
61 | GCGAAGCAAUAUUACGAGCC | -3.17 ± 0.23 | 
62 | GCGAAGCAAUAUUACGAGGU | -2.98 ± 0.2 | -2.76 ± 0.33
63 | GCGAAGCAAUAUUACGCAAA | -3.14 ± 0.22 | -2.07 ± 0.17
64 | GCGAAGCAAUAUUACGCGCC |  | -1.73 ± 0.4
65 | GCGAAGCAAUAUUACGCUUA | -2.1 ± 0.21 | -0.759 ± 0.2
66 | GCGAAGCAAUAUUACGGAGA | -2.88 ± 0.26 | -2.87 ± 0.44
67 | GCGAAGCAAUAUUACGGCAA | -0.999 ± 0.16 | -0.804 ± 0.16
68 | GCGAAGCAAUAUUACGGGUC |  | -0.782 ± 0.19
69 | GCGAAGCAAUAUUACGGUAU | -3.35 ± 0.18 | -0.774 ± 0.1
70 | GCGAAGCAAUAUUACGGUGU | -3.59 ± 0.14 | -2.66 ± 0.13
71 | GCGAAGCAAUAUUACGUCAA | -3.02 ± 0.19 | -2.05 ± 0.15
72 | GCGAAGCAAUAUUACGUCAC |  | -2.82 ± 0.3
73 | GCGAAGCAAUAUUACGUCAG | -3.41 ± 0.2 | -2.52 ± 0.26
74 | GCGAAGCAAUAUUACGUCCA | -1.16 ± 0.086 | -0.269 ± 0.11
75 | GCGAAGCAAUAUUACGUGUG | -2.61 ± 0.12 | -1.67 ± 0.11
76 | GCGAAGCAAUAUUACGUUGA | -2.59 ± 0.15 | -2.33 ± 0.14
77 | GCGAAGCAAUAUUACGUUGC |  | -1.98 ± 0.2
78 | GCGAAGCAAUAUUACGUUGU | -3.58 ± 0.21 | -2.58 ± 0.18
79 | GCGAAGCAAUAUUACGUUUC | -2.9 ± 0.2 | 
